Source: article PMC12167799, “The role of human Shu complex in ATP-dependent regulation of RAD51 filaments during homologous recombination–associated DNA damage response”

How the values were obtained:
RAD51 = RAD51 (Homo sapiens, UniProt Q06609 1-339); assay: competition (fluorescence intensity); 2 mM ATP; 100x unlabeled dT39 lowers signal ~30%; FPA: 5 nM 6-FAM DNA, 37 C, 2 mM nucleotide where stated (buffer not given in material); EMSA: 0.05 uM 6-FAM DNA, 5%/15% native PAGE; RAD51 filaments: 2 mM ATP; settings: protein: recombinant; tags: none; chain copies: 10; label: 5' 6-FAM
[1] = molecular target: RAD51;SWSAP1 D96A (Walker B);hSWS1 (Homo sapiens;Homo sapiens;Homo sapiens, UniProt Q06609;Q6NVH7;Q19AV6 1-339;22-250;1-140, |D117A|); assay: competition (fluorescence intensity); 2 mM ATP; D96A stabilizes 5' end like WT; FPA: 5 nM 6-FAM DNA, 37 C, 2 mM nucleotide where stated (buffer not given in material); EMSA: 0.05 uM 6-FAM DNA, 5%/15% native PAGE; RAD51 filaments: 2 mM ATP; settings: protein: recombinant;recombinant;recombinant; tags: none;N-terminal 6xHis-TEV, cleaved;none; label: 5' 6-FAM
[2] = molecular target: RAD51;SWSAP1 (hSWS1-SWSAP1, WT);hSWS1 (Homo sapiens;Homo sapiens;Homo sapiens, UniProt Q06609;Q6NVH7;Q19AV6 1-339;22-250;1-140, ||); assay: competition (fluorescence intensity); 2 mM ATP; Shu inhibits exchange at 5' end; FPA: 5 nM 6-FAM DNA, 37 C, 2 mM nucleotide where stated (buffer not given in material); EMSA: 0.05 uM 6-FAM DNA, 5%/15% native PAGE; RAD51 filaments: 2 mM ATP; settings: protein: recombinant;recombinant;recombinant; tags: none;N-terminal 6xHis-TEV, cleaved;none; label: 5' 6-FAM

Measured: binding result

Sequence of RAD51 (Q06609 whole entry): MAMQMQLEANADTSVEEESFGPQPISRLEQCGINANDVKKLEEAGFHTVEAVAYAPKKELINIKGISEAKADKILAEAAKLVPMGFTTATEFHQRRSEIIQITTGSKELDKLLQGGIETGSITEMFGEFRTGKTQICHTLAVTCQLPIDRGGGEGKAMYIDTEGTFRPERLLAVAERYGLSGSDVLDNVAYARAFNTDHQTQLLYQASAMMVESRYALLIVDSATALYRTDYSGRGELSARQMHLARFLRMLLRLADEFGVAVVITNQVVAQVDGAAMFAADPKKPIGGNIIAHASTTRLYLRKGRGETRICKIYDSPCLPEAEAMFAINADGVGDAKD
Sequence of RAD51;SWSAP1 (hSWS1-SWSAP1, WT);hSWS1 (Q06609 whole entry, one chain of several): as the sequence (Q06609 whole entry) above
Sequence of RAD51;SWSAP1 D96A (Walker B);hSWS1 (Q06609 whole entry, stated change not applied, one chain of several): as the sequence (Q06609 whole entry) above

TTTTTTTTTTTTTTTTTTTTTTTTTTTTTTTTTTTTTTT (ssDNA) [*5'-(T)39]
binds: all assays above
